Experimental data reported in publication PMC9352680, “A comprehensive thermodynamic model for RNA binding by the Saccharomyces cerevisiae Pumilio protein PUF4”.
Positions count from the first letter of the chain named. In names and notes the source's numbering stands.

T1: PUF4 RNA-binding domain (Saccharomyces cerevisiae, UniProt P25339 537-888)
T1 sequence: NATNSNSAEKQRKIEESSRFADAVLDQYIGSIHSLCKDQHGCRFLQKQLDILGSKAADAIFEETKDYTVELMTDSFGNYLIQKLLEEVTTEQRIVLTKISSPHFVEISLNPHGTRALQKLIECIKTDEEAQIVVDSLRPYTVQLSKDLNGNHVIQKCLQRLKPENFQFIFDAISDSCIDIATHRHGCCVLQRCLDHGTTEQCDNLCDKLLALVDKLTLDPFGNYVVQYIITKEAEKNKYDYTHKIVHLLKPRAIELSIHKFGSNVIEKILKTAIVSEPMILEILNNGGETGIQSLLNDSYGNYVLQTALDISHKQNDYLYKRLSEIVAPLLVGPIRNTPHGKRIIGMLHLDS

B1: Ib_S2_P5E.1_K5.1_C5.1_H5.1_A5.1_F5.1_[T8C]_[T9C]_T5.1 (ssRNA)
RNA: UUUGAUUAAUAUGAUAUCGUUCUUUCUUGUAUUACCAUUCUUUCUCGAUAUCAUAUUAAUCUUU
B2: Ib_S2_P5E.1_K5.1_C5.1_H5.1_A5.1_F5.1_[T9G]_[A10T]_T5.1 (ssRNA)
RNA: B1 RNA with C35U, C36G, A37U
B3: Ib_S2_P5E.1_K5.1_C5.1_H5.1_A5.1_F5.1_[T9A]_[A10T]_T5.1 (ssRNA)
RNA: B1 RNA with C35U, C36A, A37U
B4: Ib_S2_P5E.1_K5.1_C5.1_H5.1_[A4C]_A5.1_F5.1_[T8C]_T5.1 (ssRNA)
RNA: B1 RNA with A31C, C36U
B5: Ib_S2_P5E.1_K5.1_C5.1_H5.1_A5.1_F5.1_[T9A]_[A10G]_T5.1 (ssRNA)
RNA: B1 RNA with C35U, C36A, A37G
B6: Ib_S2_P5E.1_K5.1_C5.1_H5.1_[T3C]_A5.1_F5.1_[T8C]_T5.1 (ssRNA)
RNA: B1 RNA with U30C, C36U
B7: Ib_S2_P5E.1_K5.1_C5.1_H5.1_A5.1_F5.1_[T9C]_[A10C]_T5.1 (ssRNA)
RNA: B1 RNA with C35U, A37C
B8: Ib_S2_P5E.1_K5.1_C5.1_H5.1_A5.1_F5.1_[T8C]_[A10T]_T5.1 (ssRNA)
RNA: B1 RNA with C36U, A37U
B9: Ib_S2_P5E.1_K5.1_C5.1_H5.1_A5.1_F5.1_[T8A]_[A10C]_T5.1 (ssRNA)
RNA: B1 RNA with C35A, C36U, A37C
B10: Ib_S2_P5E.1_K5.1_C5.1_H5.1_A5.1_F5.1_[T8C]_[A10G]_T5.1 (ssRNA)
RNA: B1 RNA with C36U, A37G
B11: Ic_S2_P5E.1_K5.1_C5.1_H5.1_A5.1_F5.1_[T9C]_[A10T]_T5.1 (ssRNA)
RNA: B1 RNA with C35U, A37U
B12: Ib_S2_P5E.1_K5.1_C5.1_H5.1_[T3C]_A5.1_F5.1_[T8A]_T5.1 (ssRNA)
RNA: B1 RNA with U30C, C35A, C36U
B13: Ib_S2_P5E.1_K5.1_C5.1_H5.1_[G2A]_A5.1_F5.1_[T8G]_T5.1 (ssRNA)
RNA: B1 RNA with G29A, C35G, C36U
B14: Ib_S2_P5E.1_K5.1_C5.1_H5.1_A5.1_F5.1_[T9A]_[A10C]_T5.1 (ssRNA)
RNA: B1 RNA with C35U, C36A, A37C
B15: Ib_S2_P4E.1_K4.1_C4.1_H4.1_[G2T]_A4.1_[A6C]_F4.1_T4.1 (ssRNA)
RNA: UUUGAUUAAUAUGAUAUCGUUCUUUCUUUUAUCUUAUUCUUUCUCGAUAUCAUAUUAAUCUUU
B16: Ic_S2_P4E.1_K4.1_C4.1_H4.1_A4.1_[T5A]_F4.1_T4.1 (ssRNA)
RNA: B15 RNA with U29G, U32A, C33A
B17: Ib_S2_P4E.1_K4.1_C4.1_H4.1_[G2A]_A4.1_[T7G]_F4.1_T4.1 (ssRNA)
RNA: B15 RNA with U29A, C33A, U34G
B18: Ib_S2_P4E.1_K4.1_C4.1_H4.1_[T3C]_A4.1_[T5C]_F4.1_T4.1 (ssRNA)
RNA: B15 RNA with U29G, U30C, U32C, C33A
B19: Ib_S2_P4E.1_K4.1_C4.1_H4.1_A4.1_[T5A]_[T7C]_F4.1_T4.1 (ssRNA)
RNA: B15 RNA with U29G, U32A, C33A, U34C
B20: Ib_S2_P4E.1_K4.1_C4.1_H4.1_[A4T]_A4.1_[A6G]_F4.1_T4.1 (ssRNA)
RNA: B15 RNA with U29G, A31U, C33G
B21: Ib_S2_P4E.1_K4.1_C4.1_H4.1_A4.1_[T5A]_[A6C]_F4.1_T4.1 (ssRNA)
RNA: B15 RNA with U29G, U32A
B22: Ib_S2_P4E.1_K4.1_C4.1_H4.1_A4.1_[A6C]_[T7G]_F4.1_T4.1 (ssRNA)
RNA: B15 RNA with U29G, U34G
B23: Ib_S2_P4E.1_K4.1_C4.1_H4.1_[A4C]_A4.1_[T7C]_F4.1_T4.1 (ssRNA)
RNA: B15 RNA with U29G, A31C, C33A, U34C
B24: Ib_S2_P4E.1_K4.1_C4.1_H4.1_[G2T]_A4.1_[A6T]_F4.1_T4.1 (ssRNA)
RNA: B15 RNA with C33U
B25: Ib_S2_P4E.1_K4.1_C4.1_H4.1_[T3C]_A4.1_[A6G]_F4.1_T4.1 (ssRNA)
RNA: B15 RNA with U29G, U30C, C33G
B26: Ib_S2_P4E.1_K4.1_C4.1_H4.1_[A4G]_A4.1_[T7C]_F4.1_T4.1 (ssRNA)
RNA: B15 RNA with U29G, A31G, C33A, U34C
B27: Ia_S2_P4E.1_K4.1_C4.1_H4.1_A4.1_[A6G]_F4.1_T4.1 (ssRNA)
RNA: B15 RNA with U29G, C33G
B28: Ib_S2_P4E.1_K4.1_C4.1_H4.1_[A4C]_A4.1_[A6T]_F4.1_T4.1 (ssRNA)
RNA: B15 RNA with U29G, A31C, C33U
B29: Ic_S2_P4E.1_K4.1_C4.1_H4.1_A4.1_[A6T]_[T7A]_F4.1_T4.1 (ssRNA)
RNA: B15 RNA with U29G, C33U, U34A
B30: Ib_S2_P4E.1_K4.1_C4.1_H4.1_[A4G]_A4.1_[T7G]_F4.1_T4.1 (ssRNA)
RNA: B15 RNA with U29G, A31G, C33A, U34G
B31: Ib_S2_P4E.1_K4.1_C4.1_H4.1_[A4T]_A4.1_[T7C]_F4.1_T4.1 (ssRNA)
RNA: B15 RNA with U29G, A31U, C33A, U34C
B32: Ic_S2_P4E.1_K4.1_C4.1_H4.1_A4.1_[T5A]_[A6T]_F4.1_T4.1 (ssRNA)
RNA: B15 RNA with U29G, U32A, C33U
B33: Ib_S2_P4E.1_K4.1_C4.1_H4.1_[A4T]_A4.1_[A6C]_F4.1_T4.1 (ssRNA)
RNA: B15 RNA with U29G, A31U
B34: Ib_S2_P4E.1_K4.1_C4.1_H4.1_[A4C]_A4.1_[T7G]_F4.1_T4.1 (ssRNA)
RNA: B15 RNA with U29G, A31C, C33A, U34G
B35: Ib_S2_P4E.1_K4.1_C4.1_H4.1_[G2C]_A4.1_[T7C]_F4.1_T4.1 (ssRNA)
RNA: B15 RNA with U29C, C33A, U34C
B36: Ib_S2_P4E.1_K4.1_C4.1_H4.1_[G2A]_A4.1_[A6C]_F4.1_T4.1 (ssRNA)
RNA: B15 RNA with U29A
B37: Ib_S2_P4E.1_K4.1_C4.1_H4.1_[T3C]_A4.1_[A6C]_F4.1_T4.1 (ssRNA)
RNA: B15 RNA with U29G, U30C
B38: Ia_S2_P4E.1_K4.1_C4.1_H4.1_A4.1_[T7G]_F4.1_T4.1 (ssRNA)
RNA: B15 RNA with U29G, C33A, U34G
B39: Ib_S2_P4E.1_K4.1_C4.1_H4.1_A4.1_[T5A]_[T7A]_F4.1_T4.1 (ssRNA)
RNA: B15 RNA with U29G, U32A, C33A, U34A
B40: Ic_S2_P4E.1_K4.1_C4.1_H4.1_A4.1_[A6C]_[T7A]_F4.1_T4.1 (ssRNA)
RNA: B15 RNA with U29G, U34A
B41: Ia_S2_P4E.1_K4.1_C4.1_H4.1_[A4T]_A4.1_F4.1_T4.1 (ssRNA)
RNA: B15 RNA with U29G, A31U, C33A
B42: Ib_S2_P4E.1_K4.1_C4.1_H4.1_[A4G]_A4.1_[A6C]_F4.1_T4.1 (ssRNA)
RNA: B15 RNA with U29G, A31G
B43: Ib_S2_P4E.1_K4.1_C4.1_H4.1_A4.1_[T5C]_[T7G]_F4.1_T4.1 (ssRNA)
RNA: B15 RNA with U29G, U32C, C33A, U34G
B44: Ib_S2_P4E.1_K4.1_C4.1_H4.1_[T3C]_A4.1_[T7G]_F4.1_T4.1 (ssRNA)
RNA: B15 RNA with U29G, U30C, C33A, U34G
B45: Ia_S2_P4E.1_K4.1_C4.1_H4.1_A4.1_[A6C]_F4.1_T4.1 (ssRNA)
RNA: B15 RNA with U29G
B46: Ic_S2_P4E.1_K4.1_C4.1_H4.1_A4.1_[A6T]_[T7G]_F4.1_T4.1 (ssRNA)
RNA: B15 RNA with U29G, C33U, U34G
B47: Ic_S2_P4E.1_K4.1_C4.1_H4.1_A4.1_[A6C]_[T7C]_F4.1_T4.1 (ssRNA)
RNA: B15 RNA with U29G, U34C
B48: Ib_S2_P4E.1_K4.1_C4.1_H4.1_A4.1_[T5G]_[A6T]_F4.1_T4.1 (ssRNA)
RNA: B15 RNA with U29G, U32G, C33U
B49: Ib_S2_P4E.1_K4.1_C4.1_H4.1_[A4G]_A4.1_[A6T]_F4.1_T4.1 (ssRNA)
RNA: B15 RNA with U29G, A31G, C33U
B50: Ib_S2_P4E.1_K4.1_C4.1_H4.1_[A4G]_A4.1_[T7A]_F4.1_T4.1 (ssRNA)
RNA: B15 RNA with U29G, A31G, C33A, U34A
B51: Ib_S2_P4E.1_K4.1_C4.1_H4.1_A4.1_[T5C]_[A6C]_F4.1_T4.1 (ssRNA)
RNA: B15 RNA with U29G, U32C
B52: Ib_S2_P4E.1_K4.1_C4.1_H4.1_A4.1_[T5C]_[T7C]_F4.1_T4.1 (ssRNA)
RNA: B15 RNA with U29G, U32C, C33A, U34C
B53: Ic_S2_P4E.1_K4.1_C4.1_H4.1_A4.1_[A6T]_[T7C]_F4.1_T4.1 (ssRNA)
RNA: B15 RNA with U29G, C33U, U34C
B54: Ib_S2_P4E.1_K4.1_C4.1_H4.1_[A4T]_A4.1_[T7G]_F4.1_T4.1 (ssRNA)
RNA: B15 RNA with U29G, A31U, C33A, U34G
B55: Ic_S2_P4E.1_K4.1_C4.1_H4.1_A4.1_[A6G]_[T7C]_F4.1_T4.1 (ssRNA)
RNA: B15 RNA with U29G, C33G, U34C
B56: Ib_S2_P4E.1_K4.1_C4.1_H4.1_[A4C]_A4.1_[T7A]_F4.1_T4.1 (ssRNA)
RNA: B15 RNA with U29G, A31C, C33A, U34A
B57: Ib_S2_P4E.1_K4.1_C4.1_H4.1_A4.1_[T5C]_[A6T]_F4.1_T4.1 (ssRNA)
RNA: B15 RNA with U29G, U32C, C33U

molecular target: T1, PUF4 RNA-binding domain; experiment: Mg; RNA-MaP; 20 mM Na-HEPES pH 7.4, 30 mM KOAc, 0.75 mM MgCl2, 0.1% Tween-20, 5% glycerol, 0.1 mg/mL BSA, 2 mM DTT; 25 C; 0.0125-409.6 nM protein; conditions: tags: N-His6-TEV cleaved; C-SNAP kept, Cy3B-labelled; label: tethered on chip by stalled RNA polymerase

Binder | Kd [nM]
B1 | 321
B2 | 3.65
B3 | 0.947
B4 | 39.2
B5 | 3.11
B6 | 562
B7 | 19.4
B8 | 64.6
B9 | 181
B10 | 64.4
B11 | 17.6
B12 | 1260
B13 | 695
B14 | 7.25
UCUCUUAGUAUAUAUCUCUU (ssRNA) [Ia_S1_P3E.1_K3.1_C3.1_H3.1_[T1A]_A3.1_F3.1_T3.1] | 742
B15 | > 2300
B16 | 0.874
B17 | 80.2
B18 | 14.6
B19 | 1.21

Binder | Kd [nM]
B20 | 55.4
B21 | 2.62
B22 | 8.48
B23 | 6.04
B24 | 1390
B25 | 777
B26 | 1.04
B27 | 2.55
B28 | 28.6
B29 | 0.912
B30 | 5.12
B31 | 6.89
B32 | 2.07
B33 | 23.1
B34 | 50.2
B35 | 190
B36 | 154
B37 | 1010
B38 | 1.05
B39 | 1.83

Binder | Kd [nM]
B40 | 0.595
B41 | 4.39
B42 | 8.2
B43 | 0.884
B44 | 616
B45 | 1.21
B46 | 4.85
B47 | 1.76
B48 | 2.75
B49 | 4.38
B50 | 5.79
B51 | 0.902
B52 | 0.279
B53 | 1
B54 | 30.8
B55 | 2.71
B56 | 16
B57 | 0.795
